Assays:
[1] = target: T1, human CD4, membrane-bound on cells (HPB-ALL cells, blood/PBMC CD4+ T cells, assay target cells) (human, UniProt P01730 26-458); test: competition FACS on HPB-ALL cells; inhibition of dB4-Alexa (250 ng/mL)
T1 construct: whole, on cells; Target on human HPB-ALL T-leukemic cells, human blood CD4+ T lymphocytes and CD4+ indicator cells of the neutralisation assays; also called CD4 receptor; surface CD4
Description: On V-bottomed microplates, aliquots of 2×10⁵ cells in 0.1 mL per well were added, centrifuged, and liquid discarded. […] The cells were washed once and the liquid discarded after centrifugation. To each well, aliquots of 200 μL of binding buffer were added and transferred to microdilution tubes for flow cytometric analysis. The binding intensity (mean fluorescence intensity, MFI), based on an inlet of 5,000 cells per sample, was read on FACS.

recombinant soluble CD4 [2] = target: T2, recombinant soluble CD4 (UniProt P01730 26-390, limits assumed); test: competition ELISA on coated sCD4/p2704a mixture; reference dB4
T2 construct: also called sCD4; rsCD4

[3] = target: T1, human CD4, membrane-bound on cells …; test: cell-based or functional assay
recombinant soluble CD4 [4] = target: T2, recombinant soluble CD4; test: competition ELISA on coated sCD4/p2704a mixture; inhibition of B4-biotin (10 µg/mL)
[5] = target: T1, human CD4, membrane-bound on cells …; test: cell-based or functional assay; remark: listed apart in the source
[6] = target: T1, human CD4, membrane-bound on cells …; test: competition FACS on HPB-ALL cells; reference dB4
[7] = target: T1, human CD4, membrane-bound on cells …; test: cell-based or functional assay; remark: listed apart in the source

B1: murine monoclonal antibody B4 (mAb B4) (antibody, V domains shown)
VH: QVQLQQSGPELVKPGASVRMSCKASGYTFTDYVIHWVKQRTGQGLEWIGEIYPGSGSAYSNAKFKDKATLTADKSSNTAYMQLSSLTSEDSAVYFCARRGNGTGFAYWGQGTLVTVSA
VL: DIVLTQSPASLAVSLGQRATISCKAGQSVDYDGDSYMNWYQQKPGQPPKLLIYVASNLESGIPARFSGSGSGTDFTLNIHPVEEEDAATYYCQQSYKDPLTFGAGTKLELK
modifications: N-glycosylated at Asn101 in the Fv
- IC50 [1]: 0.135 µg/mL
- IC50 ratio of B4 to dB4 (recombinant soluble CD4 [2]): 0.68 ratio
- IC50 entry inhibition, PhenoSense, control virus 92HT594 [3]: 0.021 µg/mL
- IC50 entry inhibition, PhenoSense, control virus JRCSF [3]: 0.034 µg/mL
- IC50 entry inhibition, PhenoSense, control virus JRFL [3]: 0.074 µg/mL
- IC50 entry inhibition, PhenoSense, isolate 92/RW/008 (clade A) [3]: 0.026 µg/mL
- IC50 entry inhibition, PhenoSense, isolate 92/RW/024 (clade A) [3]: 0.055 µg/mL
- IC50 entry inhibition, PhenoSense, isolate 92/TH/005 (clade EA) [3]: 0.012 µg/mL
- IC50 entry inhibition, PhenoSense, isolate 92/TH/006 (clade EA) [3]: 0.022 µg/mL
- IC50 entry inhibition, PhenoSense, isolate 92/TH/007 (clade EA) [3]: 0.013 µg/mL
- IC50 entry inhibition, PhenoSense, isolate 92/TH/009 (clade EA) [3]: 0.021 µg/mL
- IC50 entry inhibition, PhenoSense, isolate 92/TH/019 (clade EA) [3]: 0.022 µg/mL
- IC50 entry inhibition, PhenoSense, isolate 92/TH/020 (clade EA) [3]: 0.015 µg/mL
- IC50 entry inhibition, PhenoSense, isolate 92/TH/021 (clade EA) [3]: 0.017 µg/mL
- IC50 entry inhibition, PhenoSense, isolate 92/TH/022 (clade EA) [3]: 0.012 µg/mL
- IC50 entry inhibition, PhenoSense, isolate 92/TH/024 (clade EA) [3]: 0.01 µg/mL
- IC50 entry inhibition, PhenoSense, isolate 92/UG/001 (clade D) [3]: 0.018 µg/mL
- IC50 entry inhibition, PhenoSense, isolate 92/UG/005 (clade D) [3]: 0.019 µg/mL
- IC50 entry inhibition, PhenoSense, isolate 92/UG/021 (clade D) [3]: 0.017 µg/mL
- IC50 entry inhibition, PhenoSense, isolate 92/UG/024 (clade D) [3]: 0.04 µg/mL
- IC50 entry inhibition, PhenoSense, isolate 92/UG/035 (clade D) [3]: 0.011 µg/mL
- IC50 entry inhibition, PhenoSense, isolate 92/UG/038 (clade D) [3]: 0.014 µg/mL
- IC50 entry inhibition, PhenoSense, isolate 92/UG/046 (clade D) [3]: 0.015 µg/mL
- IC50 entry inhibition, PhenoSense, isolate 93/BR/019 (clade BF) [3]: 0.013 µg/mL
- IC50 entry inhibition, PhenoSense, isolate 93/BR/020 (clade F) [3]: 0.024 µg/mL
- IC50 entry inhibition, PhenoSense, isolate 93/IN/101 (clade C) [3]: 0.016 µg/mL
- IC50 entry inhibition, PhenoSense, isolate 93/RW/029 (clade A) [3]: 0.019 µg/mL
- IC50 entry inhibition, PhenoSense, isolate 93/TH/057 (clade E) [3]: 0.023 µg/mL
- IC50 entry inhibition, PhenoSense, isolate 93/TH/305 (clade E) [3]: 0.021 µg/mL
- IC50 entry inhibition, PhenoSense, isolate 93/UG/053 (clade D) [3]: 0.02 µg/mL
- IC50 entry inhibition, PhenoSense, isolate 93/UG/065 (clade D) [3]: 0.015 µg/mL
- IC50 entry inhibition, PhenoSense, isolate 93/UG/067 (clade D) [3]: 0.016 µg/mL
- IC50 entry inhibition, PhenoSense, isolate 93/UG/070 (clade D) [3]: 0.011 µg/mL
- IC50 entry inhibition, PhenoSense, isolate 93/UG/077 (clade A) [3]: 0.012 µg/mL
- IC50 entry inhibition, PhenoSense, isolate 93/UG/082 (clade D) [3]: 0.016 µg/mL
- IC50 entry inhibition, PhenoSense, isolate 93/UG/086 (clade D) [3]: 0.015 µg/mL
- IC50 entry inhibition, PhenoSense, isolate 94/UG/103 (clade A) [3]: 0.021 µg/mL
- IC50 entry inhibition, PhenoSense, isolate 94/UG/105 (clade D) [3]: 0.021 µg/mL
- IC50 entry inhibition, PhenoSense, isolate 94/UG/114 (clade D) [3]: 0.015 µg/mL
- IC50 entry inhibition, PhenoSense, isolate 94/UG/117 (clade D) [3]: 0.017 µg/mL
- IC50 entry inhibition, PhenoSense, isolate 94/UG/118 (clade D) [3]: 0.02 µg/mL
- IC50 entry inhibition, PhenoSense, isolate 10215-6 (clade C) [3]: 0.018 µg/mL
- IC50 entry inhibition, PhenoSense, isolate 10362 (clade C) [3]: 0.02 µg/mL
- IC50 entry inhibition, PhenoSense, isolate 11657-3 (clade C) [3]: 0.025 µg/mL
- IC50 entry inhibition, PhenoSense, isolate 20635-4 (clade C) [3]: 0.02 µg/mL
- IC50 entry inhibition, PhenoSense, isolate 21068 (clade C) [3]: 0.011 µg/mL
- IC50 entry inhibition, PhenoSense, isolate CA1 (clade A) [3]: 0.011 µg/mL
- IC50 entry inhibition, PhenoSense, isolate CA2 (clade A) [3]: 0.018 µg/mL
- IC50 entry inhibition, PhenoSense, isolate CA3 (clade A) [3]: 0.019 µg/mL
- IC50 entry inhibition, PhenoSense, isolate CC1 (clade C) [3]: 0.016 µg/mL
- IC50 entry inhibition, PhenoSense, isolate CC2 (clade C) [3]: 0.021 µg/mL
- IC50 entry inhibition, PhenoSense, isolate CC3 (clade C) [3]: 0.012 µg/mL
- IC50 entry inhibition, PhenoSense, isolate CC4 (clade C) [3]: 0.013 µg/mL
- IC50 entry inhibition, PhenoSense, isolate CC5 (clade C) [3]: 0.019 µg/mL
- IC50 entry inhibition, PhenoSense, isolate CC6 (clade C) [3]: 0.018 µg/mL
- IC50 entry inhibition, PhenoSense, isolate CC7 (clade C) [3]: 0.013 µg/mL
- IC50 entry inhibition, PhenoSense, isolate CC8 (clade C) [3]: 0.019 µg/mL
- IC50 entry inhibition, PhenoSense, isolate CC9 (clade C) [3]: 0.02 µg/mL
- IC50 entry inhibition, PhenoSense, isolate CC10 (clade C) [3]: 0.015 µg/mL
- IC50 entry inhibition, PhenoSense, isolate CD1 (clade D) [3]: 0.016 µg/mL
- IC50 entry inhibition, PhenoSense, isolate CF2 (clade F) [3]: 0.016 µg/mL
- IC50 entry inhibition, PhenoSense, isolate CF3 (clade F) [3]: 0.024 µg/mL
- IC50 entry inhibition, PhenoSense, isolate CF4 (clade F) [3]: 0.019 µg/mL
- IC50 entry inhibition, PhenoSense, isolate CF5 (clade F) [3]: 0.018 µg/mL
- IC50 entry inhibition, PhenoSense, isolate CF6 (clade F) [3]: 0.018 µg/mL
- IC50 entry inhibition, PhenoSense, isolate CF7 (clade F) [3]: 0.019 µg/mL
- IC50 entry inhibition, PhenoSense, isolate CF8 (clade F) [3]: 0.017 µg/mL
- IC50 entry inhibition, PhenoSense, isolate CG1 (clade G) [3]: 0.018 µg/mL
- IC50 entry inhibition, PhenoSense, isolate CG2 (clade G) [3]: 0.027 µg/mL
- IC50 entry inhibition, PhenoSense, isolate CG3 (clade G) [3]: 0.016 µg/mL
- IC50 entry inhibition, PhenoSense, isolate CG4 (clade G) [3]: 0.013 µg/mL
- IC50 entry inhibition, PhenoSense, isolate CJ1 (clade J) [3]: 0.018 µg/mL
- IC50 entry inhibition, PhenoSense, isolate CJ2 (clade J) [3]: 0.019 µg/mL
- IC50 entry inhibition, PhenoSense, isolate CMU02 (clade EA) [3]: 0.011 µg/mL
- IC50 entry inhibition, PhenoSense, isolate CMU06 (clade E) [3]: 0.026 µg/mL
- IC50 entry inhibition, PhenoSense, isolate MW/93/959 (clade C) [3]: 0.019 µg/mL
- IC50 entry inhibition, PhenoSense, isolate MW/93/960 (clade C) [3]: 0.01 µg/mL
- IC50 entry inhibition, PhenoSense, isolate QZ4589 (clade E?) [3]: 0.036 µg/mL
- average IC50 entry inhibition, PhenoSense, all viruses of Table 3 [3]: 0.018 µg/mL
- IC50 (recombinant soluble CD4 [4]): 5.54 µg/mL
- IC50 of HIV entry inhibition, pseudotype virus 92TH594 (R5/X4), U87-CD4+/CCR5+/CXCR4+ cells [5]: 0.05 µg/mL
- IC50 of HIV entry inhibition, pseudotype virus HXB2 (X4), U87-CD4+/CCR5+/CXCR4+ cells [5]: 0.4 µg/mL
- IC50 of HIV entry inhibition, pseudotype virus JRCSF (R5), U87-CD4+/CCR5+/CXCR4+ cells [5]: 0.04 µg/mL
- IC50 ratio of B4 to dB4 [6]: 0.69 ratio
- IC50 of entry inhibition, second cluster, panel of over 850 Env pseudotype viruses [7]: ~10 µg/mL

Reference: patent US20170369576A1 (UBI US, published 2017)
